From paper PMC5079111 (Cell, 2016)

Biological target: His-NPM1 (human, UniProt P06748 1-294)
Assay: pull-down

His-NPM1, sequence (P06748 whole entry): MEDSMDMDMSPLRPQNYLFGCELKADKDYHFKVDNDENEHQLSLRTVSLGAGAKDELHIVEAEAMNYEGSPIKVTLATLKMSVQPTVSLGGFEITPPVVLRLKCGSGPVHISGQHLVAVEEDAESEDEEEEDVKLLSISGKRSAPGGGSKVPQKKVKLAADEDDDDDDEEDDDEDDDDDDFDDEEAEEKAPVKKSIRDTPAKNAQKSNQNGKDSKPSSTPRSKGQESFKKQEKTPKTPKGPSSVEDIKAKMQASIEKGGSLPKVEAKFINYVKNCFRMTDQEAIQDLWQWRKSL

Row | Binder | binding result
1 | PRPRPRPRPRPRPRPRPRPRPRPRPRPRPRPRPRPRPRPR [PR20-FLAG peptide] | binds
2 | GRGRGRGRGRGRGRGRGRGRGRGRGRGRGRGRGRGRGRGR [GR20-FLAG peptide] | binds
